Measured values from patent publication US7070777.
One block for each substance: values may come before it.

Experiments:
CD45RA (human) [1] = target: CD45RA (human) (UniProt P08575); assay: FACS on Jurkat B2.7 cells; background subtracted, rounded to nearest ten
CD45RA (human) [2] = target: CD45RA (human) (UniProt P08575); assay: FACS on Jurkat D1.1 cells; background subtracted, rounded to nearest ten
CD7 (human) [3] = target: CD7 (human) (UniProt P09564); assay: FACS on Jurkat B2.7 cells; background subtracted, rounded to nearest ten
CD7 (human) [4] = target: CD7 (human) (UniProt P09564); assay: FACS on Jurkat D1.1 cells; background subtracted, rounded to nearest ten
CD16 (human) [5] = assay: FACS on Jurkat B2.7 cells; background subtracted, rounded to nearest ten
CD16 (human) [6] = assay: FACS on Jurkat D1.1 cells; background subtracted, rounded to nearest ten
CD29 (human) [7] = target: CD29 (human) (UniProt P05556); assay: FACS on Jurkat B2.7 cells; background subtracted, rounded to nearest ten
CD29 (human) [8] = target: CD29 (human) (UniProt P05556); assay: FACS on Jurkat D1.1 cells; background subtracted, rounded to nearest ten
TCRα/β (human) [9] = assay: FACS on Jurkat B2.7 cells; background subtracted, rounded to nearest ten
TCRα/β (human) [10] = assay: FACS on Jurkat D1.1 cells; background subtracted, rounded to nearest ten
CD5 (human) [11] = target: CD5 (human) (UniProt P06127); assay: FACS on Jurkat B2.7 cells; background subtracted, rounded to nearest ten
CD5 (human) [12] = target: CD5 (human) (UniProt P06127); assay: FACS on Jurkat D1.1 cells; background subtracted, rounded to nearest ten
CD3 (human) [13] = target: CD3 (human) (UniProt P07766); assay: FACS on Jurkat B2.7 cells; background subtracted, rounded to nearest ten
CD3 (human) [14] = target: CD3 (human) (UniProt P07766); assay: FACS on Jurkat D1.1 cells; background subtracted, rounded to nearest ten
CD4 (human) = CD4 (human) (UniProt P01730); assay: FACS on Jurkat B2.7 cells; background subtracted, rounded to nearest ten
CD1a (human) [15] = target: CD1a (human) (UniProt P06126); assay: as above
CD1a (human) [16] = target: CD1a (human) (UniProt P06126); assay: FACS on Jurkat D1.1 cells; background subtracted, rounded to nearest ten
CD18 (human) [17] = target: CD18 (human) (UniProt P05107); assay: FACS on Jurkat B2.7 cells; background subtracted, rounded to nearest ten
CD18 (human) [18] = target: CD18 (human) (UniProt P05107); assay: FACS on Jurkat D1.1 cells; background subtracted, rounded to nearest ten
CD11a (human) [19] = target: CD11a (human) (UniProt P20701); assay: FACS on Jurkat B2.7 cells; background subtracted, rounded to nearest ten
CD11a (human) [20] = target: CD11a (human) (UniProt P20701); assay: FACS on Jurkat D1.1 cells; background subtracted, rounded to nearest ten
CD58 (human) [21] = target: CD58 (human) (UniProt P19256); assay: FACS on Jurkat B2.7 cells; background subtracted, rounded to nearest ten
CD58 (human) [22] = target: CD58 (human) (UniProt P19256); assay: FACS on Jurkat D1.1 cells; background subtracted, rounded to nearest ten
[23] = target: CD43RO (so in the source); T200. LCA) (human) (UniProt P08575); assay: FACS on Jurkat B2.7 cells; background subtracted, rounded to nearest ten
[24] = target: CD43RO (so in the source); T200. LCA) (human) (UniProt P08575); assay: FACS on Jurkat D1.1 cells; background subtracted, rounded to nearest ten
MHC-classI (human) [25] = assay: FACS on Jurkat B2.7 cells; background subtracted, rounded to nearest ten
MHC-classI (human) [26] = assay: FACS on Jurkat D1.1 cells; background subtracted, rounded to nearest ten

Chain of CD1a (human) (P06126 17-327): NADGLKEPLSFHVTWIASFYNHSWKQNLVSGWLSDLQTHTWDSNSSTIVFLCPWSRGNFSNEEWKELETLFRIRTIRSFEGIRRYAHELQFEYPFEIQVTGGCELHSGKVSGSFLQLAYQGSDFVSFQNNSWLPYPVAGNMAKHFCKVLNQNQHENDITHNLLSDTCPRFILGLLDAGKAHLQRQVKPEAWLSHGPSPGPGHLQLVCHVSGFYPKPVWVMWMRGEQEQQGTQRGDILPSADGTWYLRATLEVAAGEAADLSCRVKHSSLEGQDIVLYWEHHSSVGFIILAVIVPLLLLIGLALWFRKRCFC
Chain of CD29 (human) (P05556 21-798): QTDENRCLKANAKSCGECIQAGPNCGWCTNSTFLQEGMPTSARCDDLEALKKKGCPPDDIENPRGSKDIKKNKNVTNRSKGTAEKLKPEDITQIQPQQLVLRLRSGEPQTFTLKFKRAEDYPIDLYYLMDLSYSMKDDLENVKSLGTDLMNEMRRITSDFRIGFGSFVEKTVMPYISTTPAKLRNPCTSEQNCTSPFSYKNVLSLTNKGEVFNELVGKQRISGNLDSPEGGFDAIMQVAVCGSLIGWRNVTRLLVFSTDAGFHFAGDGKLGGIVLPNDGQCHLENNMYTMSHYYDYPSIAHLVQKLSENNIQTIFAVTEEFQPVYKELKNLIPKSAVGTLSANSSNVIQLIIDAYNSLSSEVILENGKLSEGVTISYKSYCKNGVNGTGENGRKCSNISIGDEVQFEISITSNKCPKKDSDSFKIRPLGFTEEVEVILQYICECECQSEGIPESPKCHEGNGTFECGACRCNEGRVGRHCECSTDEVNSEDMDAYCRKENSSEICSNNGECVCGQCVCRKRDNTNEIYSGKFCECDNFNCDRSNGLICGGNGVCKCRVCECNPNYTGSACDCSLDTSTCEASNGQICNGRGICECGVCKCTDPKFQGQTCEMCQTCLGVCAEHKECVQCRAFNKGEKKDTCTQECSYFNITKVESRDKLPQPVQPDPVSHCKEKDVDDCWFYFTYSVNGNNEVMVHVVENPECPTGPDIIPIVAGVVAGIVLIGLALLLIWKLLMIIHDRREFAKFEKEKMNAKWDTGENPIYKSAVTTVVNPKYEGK
Chain of CD45RA (human) (P08575 26-1306): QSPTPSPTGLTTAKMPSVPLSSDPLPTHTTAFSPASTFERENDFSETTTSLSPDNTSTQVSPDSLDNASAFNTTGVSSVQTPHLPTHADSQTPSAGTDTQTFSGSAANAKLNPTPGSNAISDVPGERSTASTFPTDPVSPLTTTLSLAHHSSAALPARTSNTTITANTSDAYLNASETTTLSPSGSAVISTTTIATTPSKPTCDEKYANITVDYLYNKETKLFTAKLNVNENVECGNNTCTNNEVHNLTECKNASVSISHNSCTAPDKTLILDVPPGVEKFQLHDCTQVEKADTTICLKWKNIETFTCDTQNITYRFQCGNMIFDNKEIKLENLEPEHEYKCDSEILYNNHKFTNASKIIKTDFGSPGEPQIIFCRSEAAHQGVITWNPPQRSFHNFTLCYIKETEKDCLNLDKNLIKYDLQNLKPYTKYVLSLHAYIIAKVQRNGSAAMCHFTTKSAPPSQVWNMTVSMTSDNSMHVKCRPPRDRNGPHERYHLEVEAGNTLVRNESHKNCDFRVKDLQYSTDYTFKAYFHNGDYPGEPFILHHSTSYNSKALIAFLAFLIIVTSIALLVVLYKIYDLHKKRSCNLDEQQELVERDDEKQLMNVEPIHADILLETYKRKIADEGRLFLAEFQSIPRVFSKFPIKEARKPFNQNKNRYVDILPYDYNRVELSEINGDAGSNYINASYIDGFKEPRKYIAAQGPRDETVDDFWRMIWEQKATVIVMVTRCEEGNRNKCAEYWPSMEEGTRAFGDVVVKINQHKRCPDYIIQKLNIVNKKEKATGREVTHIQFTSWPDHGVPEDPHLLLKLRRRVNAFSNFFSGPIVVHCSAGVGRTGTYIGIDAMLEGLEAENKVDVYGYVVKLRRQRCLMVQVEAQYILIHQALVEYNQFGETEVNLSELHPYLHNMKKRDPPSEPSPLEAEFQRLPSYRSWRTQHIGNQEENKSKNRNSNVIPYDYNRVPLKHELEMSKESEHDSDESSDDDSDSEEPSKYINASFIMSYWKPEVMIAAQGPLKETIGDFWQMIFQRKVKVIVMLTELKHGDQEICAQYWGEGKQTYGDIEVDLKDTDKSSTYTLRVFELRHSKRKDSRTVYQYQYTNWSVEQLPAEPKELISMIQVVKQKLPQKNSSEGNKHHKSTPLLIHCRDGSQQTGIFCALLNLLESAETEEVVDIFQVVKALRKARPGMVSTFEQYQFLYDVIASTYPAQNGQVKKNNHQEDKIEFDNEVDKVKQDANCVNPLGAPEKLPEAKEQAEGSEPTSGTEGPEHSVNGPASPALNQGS
Chain of CD43RO (so in the source); T200. LCA) (human) (P08575 26-1306): as above
Chain of CD18 (human) (P05107 23-769): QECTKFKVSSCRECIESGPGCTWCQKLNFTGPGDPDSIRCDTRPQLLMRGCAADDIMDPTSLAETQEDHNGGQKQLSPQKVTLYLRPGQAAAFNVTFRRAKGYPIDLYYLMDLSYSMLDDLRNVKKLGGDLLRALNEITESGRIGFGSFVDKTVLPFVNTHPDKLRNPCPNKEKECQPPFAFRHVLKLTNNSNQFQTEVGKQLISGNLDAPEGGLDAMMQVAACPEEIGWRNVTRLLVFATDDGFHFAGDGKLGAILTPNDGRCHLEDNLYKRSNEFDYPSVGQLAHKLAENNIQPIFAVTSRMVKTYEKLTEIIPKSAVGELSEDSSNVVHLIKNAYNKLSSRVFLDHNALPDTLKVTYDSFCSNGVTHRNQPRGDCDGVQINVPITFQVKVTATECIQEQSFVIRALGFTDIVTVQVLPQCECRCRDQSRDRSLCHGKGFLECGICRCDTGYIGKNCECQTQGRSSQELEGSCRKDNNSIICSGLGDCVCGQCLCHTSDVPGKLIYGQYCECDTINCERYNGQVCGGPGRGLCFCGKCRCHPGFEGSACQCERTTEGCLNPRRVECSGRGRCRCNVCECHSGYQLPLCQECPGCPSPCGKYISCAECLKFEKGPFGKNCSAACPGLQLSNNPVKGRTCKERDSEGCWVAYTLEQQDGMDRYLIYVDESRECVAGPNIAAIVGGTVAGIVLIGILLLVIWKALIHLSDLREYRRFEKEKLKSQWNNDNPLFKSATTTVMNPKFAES
Chain of CD7 (human) (P09564 26-240): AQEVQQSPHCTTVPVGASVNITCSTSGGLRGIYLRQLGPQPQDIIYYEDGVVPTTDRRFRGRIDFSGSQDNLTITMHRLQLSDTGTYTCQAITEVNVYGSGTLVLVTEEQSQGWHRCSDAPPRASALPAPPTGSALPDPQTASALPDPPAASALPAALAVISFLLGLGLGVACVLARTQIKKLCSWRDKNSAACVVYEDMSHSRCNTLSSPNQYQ
Chain of CD58 (human) (P19256 29-250): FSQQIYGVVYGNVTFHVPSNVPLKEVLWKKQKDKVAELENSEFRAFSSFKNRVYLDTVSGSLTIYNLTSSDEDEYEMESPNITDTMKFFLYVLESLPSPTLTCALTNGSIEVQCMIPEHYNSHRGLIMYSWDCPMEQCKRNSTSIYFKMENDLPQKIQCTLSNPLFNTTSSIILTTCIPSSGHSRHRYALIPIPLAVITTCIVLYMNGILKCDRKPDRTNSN
Chain of CD3 (human) (P07766 23-207): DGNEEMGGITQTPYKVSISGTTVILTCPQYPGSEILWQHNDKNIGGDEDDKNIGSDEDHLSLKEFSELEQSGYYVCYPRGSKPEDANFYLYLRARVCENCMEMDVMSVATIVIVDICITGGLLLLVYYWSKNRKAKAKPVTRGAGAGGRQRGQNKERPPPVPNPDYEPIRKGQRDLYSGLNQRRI
Chain of CD11a (human) (P20701 26-1170): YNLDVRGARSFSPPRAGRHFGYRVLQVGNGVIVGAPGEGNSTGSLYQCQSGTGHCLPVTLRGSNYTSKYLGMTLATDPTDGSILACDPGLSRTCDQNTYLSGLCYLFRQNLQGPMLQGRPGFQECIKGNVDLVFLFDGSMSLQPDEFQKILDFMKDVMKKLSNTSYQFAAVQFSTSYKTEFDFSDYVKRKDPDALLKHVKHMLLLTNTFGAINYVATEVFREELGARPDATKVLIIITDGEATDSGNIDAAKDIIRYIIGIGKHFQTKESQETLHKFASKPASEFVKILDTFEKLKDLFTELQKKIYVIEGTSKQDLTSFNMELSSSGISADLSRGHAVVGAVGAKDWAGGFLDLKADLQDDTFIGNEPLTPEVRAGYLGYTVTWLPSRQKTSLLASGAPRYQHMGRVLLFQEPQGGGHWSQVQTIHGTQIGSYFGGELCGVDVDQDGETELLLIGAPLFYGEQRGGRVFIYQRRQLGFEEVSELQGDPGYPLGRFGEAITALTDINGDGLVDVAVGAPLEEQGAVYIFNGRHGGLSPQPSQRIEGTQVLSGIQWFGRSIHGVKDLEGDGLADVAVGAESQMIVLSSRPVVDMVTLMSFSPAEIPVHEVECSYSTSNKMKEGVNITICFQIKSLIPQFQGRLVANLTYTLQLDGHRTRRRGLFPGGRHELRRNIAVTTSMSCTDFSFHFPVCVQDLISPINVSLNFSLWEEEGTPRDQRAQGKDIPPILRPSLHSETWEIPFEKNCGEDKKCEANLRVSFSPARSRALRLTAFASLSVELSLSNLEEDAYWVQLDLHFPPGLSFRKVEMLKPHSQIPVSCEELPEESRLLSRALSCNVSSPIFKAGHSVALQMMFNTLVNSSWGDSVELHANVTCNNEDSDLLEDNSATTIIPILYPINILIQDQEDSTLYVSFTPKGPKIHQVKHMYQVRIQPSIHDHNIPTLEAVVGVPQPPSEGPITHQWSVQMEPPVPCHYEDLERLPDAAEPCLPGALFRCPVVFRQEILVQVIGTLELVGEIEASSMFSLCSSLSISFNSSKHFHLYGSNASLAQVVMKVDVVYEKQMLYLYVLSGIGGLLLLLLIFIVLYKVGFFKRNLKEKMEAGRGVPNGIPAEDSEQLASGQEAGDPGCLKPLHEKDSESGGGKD

Mean Fluorescence Intensity (arbitrary units) (CD45RA (human) [1]): 40
Mean Fluorescence Intensity (arbitrary units) (CD45RA (human) [2]): 30
Substance: 2H4 (antibody)

Mean Fluorescence Intensity (arbitrary units) (CD7 (human) [3]): 190
Mean Fluorescence Intensity (arbitrary units) (CD7 (human) [4]): 200
Substance: 3A1 (anti-CD7) (antibody)

Mean Fluorescence Intensity (arbitrary units) (CD16 (human) [5]): 20
Mean Fluorescence Intensity (arbitrary units) (CD16 (human) [6]): 20
Substance: 3G8 (antibody)

Mean Fluorescence Intensity (arbitrary units) (CD29 (human) [7]): 110
Mean Fluorescence Intensity (arbitrary units) (CD29 (human) [8]): 140
Substance: 4B4 (antibody)

Mean Fluorescence Intensity (arbitrary units) (TCRα/β (human) [9]): 40
Mean Fluorescence Intensity (arbitrary units) (TCRα/β (human) [10]): 10
Substance: BMA-031 (antibody)

Mean Fluorescence Intensity (arbitrary units) (CD5 (human) [11]): 90
Mean Fluorescence Intensity (arbitrary units) (CD5 (human) [12]): 20
Substance: OKT1 (anti-CD5) (antibody)

Mean Fluorescence Intensity (arbitrary units) (CD3 (human) [13]): 80
Mean Fluorescence Intensity (arbitrary units) (CD3 (human) [14]): 30
Substance: OKT3 (anti-CD3) (antibody)

Mean Fluorescence Intensity (arbitrary units) (CD4 (human)): 130
Substance: OKT4 (anti-CD4) (antibody)

Mean Fluorescence Intensity (arbitrary units) (CD1a (human) [15]): 10
Mean Fluorescence Intensity (arbitrary units) (CD1a (human) [16]): 10
Substance: OKT6 (anti-CD1a) (antibody)

Mean Fluorescence Intensity (arbitrary units) (CD18 (human) [17]): 80
Mean Fluorescence Intensity (arbitrary units) (CD18 (human) [18]): 30
Substance: TS1/18.1.2.11.4 (anti-LFA-1β) (antibody)

Mean Fluorescence Intensity (arbitrary units) (CD11a (human) [19]): 100
Mean Fluorescence Intensity (arbitrary units) (CD11a (human) [20]): 40
Substance: TS1/22.1.13 (anti-LFA-1a) (antibody)

Mean Fluorescence Intensity (arbitrary units) (CD58 (human) [21]): 60
Mean Fluorescence Intensity (arbitrary units) (CD58 (human) [22]): 40
Substance: TS2/9.1.4.3 (anti-LFA-3) (antibody)

Mean Fluorescence Intensity (arbitrary units) [23]: 20
Mean Fluorescence Intensity (arbitrary units) [24]: 10
Substance: UCHL1 (antibody)

Mean Fluorescence Intensity (arbitrary units) (MHC-classI (human) [25]): 70
Mean Fluorescence Intensity (arbitrary units) (MHC-classI (human) [26]): 190
Substance: W6/32 (anti-MHC class I) (antibody)
